Blank lines part the entries; values can stand above or below the binder they belong to. Numbered stars: 1 amine (or outer) side, 2 acyl side, 3 side chain; on linkers, the order of the positions; unused ones are H or OH. Bridge positions count the residues as written; N and C are the ends. Square brackets hold non-standard residues; d marks the D form. bhcLeu = (1R,3S)-3-aminocyclopentane-1-carboxylic acid, O=C([C@@H]1CC[C@H](N[*:1])C1)[*:2]; dPro4cPr = (R)-5-Azaspiro[2.4]heptane-6-carboxylic acid, O=C([C@H]1CC2(CC2)CN1[*:1])[*:2]; FX1 = N5-(Pyridin-3-yl)-L-glutamine, O=C(CC[C@H](N[*:1])C(=O)[*:2])Nc1cccnc1; Trp(βS-Me,7-OMe) = COc1cccc2c([C@H](C)[C@H](N)C(=O)O)c[nH]c12; Phe(4-CH2SO3H) = N[C@@H](Cc1ccc(CS(=O)(=O)O)cc1)C(=O)O; Trp(7-Cl) = N[C@@H](Cc1c[nH]c2c(Cl)cccc12)C(=O)O; Phe(4-CONH2) = NC(=O)c1ccc(C[C@H](N)C(=O)O)cc1; Phe(4-COOH) = N[C@@H](Cc1ccc(C(=O)O)cc1)C(=O)O; Trp(7-aza) = N[C@@H](Cc1c[nH]c2ncccc12)C(=O)O; Pip(5R-OH) = O=C(O)[C@@H]1CC[C@@H](O)CN1; Tyr(2-F) = N[C@@H](Cc1ccc(O)cc1F)C(=O)O; AEF = NCCOc1ccc(C[C@H](N)C(=O)O)cc1; Val(3-OH) = CC(C)(O)[C@H](N)C(=O)O; Pip(4-aza) = O=C(O)[C@@H]1CNCCN1; 4Pal = N[C@@H](Cc1ccncc1)C(=O)O; NMeE = CN[C@@H](CCC(=O)O)C(=O)O; NMeS = CN[C@@H](CO)C(=O)O; αMeS = C[C@](N)(CO)C(=O)O; Nle = CCCC[C@H](N)C(=O)O; Pip2c = not defined here; Bhv = not defined here; Sar = CNCC(=O)O
Molecular target: T1, TNFR1 on THP-1 Lucia NF-κB cells (UniProt P19438 30-455, limits assumed)
T1 sequence (looked up): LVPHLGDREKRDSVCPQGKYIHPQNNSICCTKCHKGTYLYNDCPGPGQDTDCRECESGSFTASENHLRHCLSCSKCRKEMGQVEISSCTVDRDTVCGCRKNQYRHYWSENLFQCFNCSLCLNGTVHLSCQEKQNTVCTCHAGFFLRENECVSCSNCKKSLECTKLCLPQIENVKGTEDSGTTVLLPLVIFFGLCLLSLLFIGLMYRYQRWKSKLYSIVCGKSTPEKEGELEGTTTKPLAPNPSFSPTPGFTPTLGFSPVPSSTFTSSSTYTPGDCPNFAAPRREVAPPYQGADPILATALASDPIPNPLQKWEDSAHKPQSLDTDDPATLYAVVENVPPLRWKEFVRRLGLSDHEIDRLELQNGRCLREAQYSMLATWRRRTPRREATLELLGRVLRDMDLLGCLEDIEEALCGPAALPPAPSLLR
Assay: cell-based or functional assay

THP-1 IC50: 0.9 nM
B2: SEQ ID NO. 171 (peptide)
peptide: cyclo([bhcLeu][Nle][4Pal][Pip(4-aza)]W[NMeE]N[Phe(4-CH2SO3H)][Trp(7-Cl)][αMeS][Phe(4-COOH)]Y[Sar][Trp(βS-Me,7-OMe)])
SMILES: CCCC[C@@H]1NC(=O)[C@@H]2CC[C@@H](C2)NC(=O)[C@H]([C@@H](C)c2c[nH]c3c(OC)cccc23)NC(=O)CN(C)C(=O)[C@H](Cc2ccc(O)cc2)NC(=O)[C@H](Cc2ccc(C(=O)O)cc2)NC(=O)[C@](C)(CO)NC(=O)[C@H](Cc2c[nH]c3c(Cl)cccc23)NC(=O)[C@H](Cc2ccc(CS(=O)(=O)O)cc2)NC(=O)[C@H](CC(N)=O)NC(=O)[C@H](CCC(=O)O)N(C)C(=O)[C@H](Cc2c[nH]c3ccccc23)NC(=O)[C@@H]2CNCCN2C(=O)[C@H](Cc2ccncc2)NC1=O

THP-1 IC50: 3.3 nM
B4: SEQ ID NO. 178 (peptide)
peptide: cyclo([bhcLeu][Nle][4Pal][Pip(4-aza)]W[NMeE]N[4Pal][Trp(7-Cl)][αMeS][Phe(4-COOH)]H[Sar][Trp(βS-Me,7-OMe)])
SMILES: CCCC[C@@H]1NC(=O)[C@@H]2CC[C@@H](C2)NC(=O)[C@H]([C@@H](C)c2c[nH]c3c(OC)cccc23)NC(=O)CN(C)C(=O)[C@H](Cc2c[nH]cn2)NC(=O)[C@H](Cc2ccc(C(=O)O)cc2)NC(=O)[C@](C)(CO)NC(=O)[C@H](Cc2c[nH]c3c(Cl)cccc23)NC(=O)[C@H](Cc2ccncc2)NC(=O)[C@H](CC(N)=O)NC(=O)[C@H](CCC(=O)O)N(C)C(=O)[C@H](Cc2c[nH]c3ccccc23)NC(=O)[C@@H]2CNCCN2C(=O)[C@H](Cc2ccncc2)NC1=O

THP-1 IC50: 0.9 nM
B5: SEQ ID NO. 175 (peptide)
peptide: cyclo([bhcLeu][Nle][4Pal][Pip(4-aza)]W[NMeE]N[4Pal][Trp(7-Cl)][αMeS][Phe(4-COOH)][Tyr(2-F)][Sar][Trp(βS-Me,7-OMe)])
SMILES: CCCC[C@@H]1NC(=O)[C@@H]2CC[C@@H](C2)NC(=O)[C@H]([C@@H](C)c2c[nH]c3c(OC)cccc23)NC(=O)CN(C)C(=O)[C@H](Cc2ccc(O)cc2F)NC(=O)[C@H](Cc2ccc(C(=O)O)cc2)NC(=O)[C@](C)(CO)NC(=O)[C@H](Cc2c[nH]c3c(Cl)cccc23)NC(=O)[C@H](Cc2ccncc2)NC(=O)[C@H](CC(N)=O)NC(=O)[C@H](CCC(=O)O)N(C)C(=O)[C@H](Cc2c[nH]c3ccccc23)NC(=O)[C@@H]2CNCCN2C(=O)[C@H](Cc2ccncc2)NC1=O

THP-1 IC50: 3.3 nM
B6: SEQ ID NO. 177 (peptide)
peptide: {CH2CO}-[Nle][PyrimAla][Bhv][Trp(7-aza)][NMeE]N[4Pal][Trp(7-Cl)][αMeS][Phe(4-COOH)]Y[Sar][Trp(βS-Me,7-OMe)]C-NH2
modifications: thioether N-14; reading uncertain; also: printed as cyclo(ClAc-Nle-PyrimAla-Bhv-Trp7az-NMeE-N-4Pal-Trp7Cl-aMeS-Phe4COOH-Y-Sar-SbMeW7OMe-C)-NH2

Further lines, the binder ahead of its results:

B1: SEQ ID NO. 158 (peptide)
peptide: {CH2CO}-[Nle][4Pal][Pip2c][Trp(7-aza)][NMeE]N[4Pal][Trp(7-Cl)][αMeS][Phe(4-COOH)][TyrOCF3][Sar][Trp(βS-Me,7-OMe)]C-NH2
modifications: thioether N-14; reading uncertain; also: printed as cyclo(ClAc-Nle-4Pal-Pip2c-Trp7az-NMeE-N-4Pal-Trp7Cl-aMeS-Phe4COOH-TyrOCF3-Sar-SbMeW7OMe-C)-NH2
THP-1 IC50: 5.3 nM

B3: SEQ ID NO. 164 (peptide)
peptide: {CH2CO}-[Nle][Phe(4-CONH2)][Val(3-OH)][Trp(7-aza)][NMeE]N[4Pal][Trp(7-Cl)][αMeS][Phe(4-COOH)]Y[Sar][Trp(βS-Me,7-OMe)]C-NH2
modifications: thioether N-14
SMILES: CCCC[C@@H]1NC(=O)CSC[C@@H](C(N)=O)NC(=O)[C@H]([C@@H](C)c2c[nH]c3c(OC)cccc23)NC(=O)CN(C)C(=O)[C@H](Cc2ccc(O)cc2)NC(=O)[C@H](Cc2ccc(C(=O)O)cc2)NC(=O)[C@](C)(CO)NC(=O)[C@H](Cc2c[nH]c3c(Cl)cccc23)NC(=O)[C@H](Cc2ccncc2)NC(=O)[C@H](CC(N)=O)NC(=O)[C@H](CCC(=O)O)N(C)C(=O)[C@H](Cc2c[nH]c3ncccc23)NC(=O)[C@H](C(C)(C)O)NC(=O)[C@H](Cc2ccc(C(N)=O)cc2)NC1=O
THP-1 IC50: 3.6 nM

B7: SEQ ID NO. 166 (peptide)
peptide: cyclo([bhcLeu][FX1][4Pal][NMeS]W[NMeE]N[4Pal][Trp(7-Cl)][αMeS][Phe(4-COOH)]Y[Sar][Trp(βS-Me,7-OMe)])
SMILES: COc1cccc2c([C@H](C)[C@@H]3NC(=O)CN(C)C(=O)[C@H](Cc4ccc(O)cc4)NC(=O)[C@H](Cc4ccc(C(=O)O)cc4)NC(=O)[C@](C)(CO)NC(=O)[C@H](Cc4c[nH]c5c(Cl)cccc45)NC(=O)[C@H](Cc4ccncc4)NC(=O)[C@H](CC(N)=O)NC(=O)[C@H](CCC(=O)O)N(C)C(=O)[C@H](Cc4c[nH]c5ccccc45)NC(=O)[C@H](CO)N(C)C(=O)[C@H](Cc4ccncc4)NC(=O)[C@H](CCC(=O)Nc4cccnc4)NC(=O)[C@@H]4CC[C@@H](C4)NC3=O)c[nH]c12
THP-1 IC50: 2.7 nM

B8: SEQ ID NO. 167 (peptide)
peptide: {CH2CO}-[Nle][4Pal][Pip(4-aza)]W[dPro4cPr]N[4Pal][Trp(7-Cl)][αMeS][Phe(4-COOH)]Y[Sar][Trp(βS-Me,7-OMe)]C-NH2
modifications: thioether N-14
SMILES: CCCC[C@@H]1NC(=O)CSC[C@@H](C(N)=O)NC(=O)[C@H]([C@@H](C)c2c[nH]c3c(OC)cccc23)NC(=O)CN(C)C(=O)[C@H](Cc2ccc(O)cc2)NC(=O)[C@H](Cc2ccc(C(=O)O)cc2)NC(=O)[C@](C)(CO)NC(=O)[C@H](Cc2c[nH]c3c(Cl)cccc23)NC(=O)[C@H](Cc2ccncc2)NC(=O)[C@H](CC(N)=O)NC(=O)[C@H]2CC3(CC3)CN2C(=O)[C@H](Cc2c[nH]c3ccccc23)NC(=O)[C@@H]2CNCCN2C(=O)[C@H](Cc2ccncc2)NC1=O
THP-1 IC50: 2.6 nM

B9: SEQ ID NO. 145 (peptide)
peptide: cyclo([bhcLeu][Nle][4Pal][Pip(5R-OH)]W[NMeE]N[AEF][Trp(7-Cl)][αMeS][Phe(4-CONH2)]Y[Sar][Trp(βS-Me,7-OMe)])
SMILES: CCCC[C@@H]1NC(=O)[C@@H]2CC[C@@H](C2)NC(=O)[C@H]([C@@H](C)c2c[nH]c3c(OC)cccc23)NC(=O)CN(C)C(=O)[C@H](Cc2ccc(O)cc2)NC(=O)[C@H](Cc2ccc(C(N)=O)cc2)NC(=O)[C@](C)(CO)NC(=O)[C@H](Cc2c[nH]c3c(Cl)cccc23)NC(=O)[C@H](Cc2ccc(OCCN)cc2)NC(=O)[C@H](CC(N)=O)NC(=O)[C@H](CCC(=O)O)N(C)C(=O)[C@H](Cc2c[nH]c3ccccc23)NC(=O)[C@@H]2CC[C@@H](O)CN2C(=O)[C@H](Cc2ccncc2)NC1=O
THP-1 IC50: 0.8 nM

Reference: US20240287138A1 (Merck Sharp & Dohme, published 2024)
